Test system: peptide library, one residue held at a place counted from the S/T acceptor
Assay: relative phosphorylation of the sub-library (ratio to the mean residue at this position); higher = residue favoured
Conditions: human
In short: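 Relative sub-library phosphorylation is a ratio to the mean residue at the same position. Purified recombinant kinases were incubated under kinase-specific conditions with biotinylated degenerate peptide sub-libraries, each fixing one residue at one position around a central Ser/Thr, using 50 μM peptide and 50 μM ATP spiked with γ-32P-ATP for 90 min. Spots captured on streptavidin membranes were phosphorimaged and quantified by densitometry.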

Sequence of ACVR2B, construct: aa161-end (Q13705 161-512, looked up): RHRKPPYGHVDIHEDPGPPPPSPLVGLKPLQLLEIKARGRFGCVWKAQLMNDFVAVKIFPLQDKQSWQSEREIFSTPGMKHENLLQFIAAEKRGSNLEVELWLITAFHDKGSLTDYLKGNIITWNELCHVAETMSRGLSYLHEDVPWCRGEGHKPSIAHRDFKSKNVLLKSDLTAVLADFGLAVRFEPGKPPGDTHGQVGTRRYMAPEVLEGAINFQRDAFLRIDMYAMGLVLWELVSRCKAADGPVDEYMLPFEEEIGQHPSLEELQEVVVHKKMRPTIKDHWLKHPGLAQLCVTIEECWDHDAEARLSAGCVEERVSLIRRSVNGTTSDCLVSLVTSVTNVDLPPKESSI
Sequence of PRKCQ, construct: Full length (Q04759 whole entry, looked up): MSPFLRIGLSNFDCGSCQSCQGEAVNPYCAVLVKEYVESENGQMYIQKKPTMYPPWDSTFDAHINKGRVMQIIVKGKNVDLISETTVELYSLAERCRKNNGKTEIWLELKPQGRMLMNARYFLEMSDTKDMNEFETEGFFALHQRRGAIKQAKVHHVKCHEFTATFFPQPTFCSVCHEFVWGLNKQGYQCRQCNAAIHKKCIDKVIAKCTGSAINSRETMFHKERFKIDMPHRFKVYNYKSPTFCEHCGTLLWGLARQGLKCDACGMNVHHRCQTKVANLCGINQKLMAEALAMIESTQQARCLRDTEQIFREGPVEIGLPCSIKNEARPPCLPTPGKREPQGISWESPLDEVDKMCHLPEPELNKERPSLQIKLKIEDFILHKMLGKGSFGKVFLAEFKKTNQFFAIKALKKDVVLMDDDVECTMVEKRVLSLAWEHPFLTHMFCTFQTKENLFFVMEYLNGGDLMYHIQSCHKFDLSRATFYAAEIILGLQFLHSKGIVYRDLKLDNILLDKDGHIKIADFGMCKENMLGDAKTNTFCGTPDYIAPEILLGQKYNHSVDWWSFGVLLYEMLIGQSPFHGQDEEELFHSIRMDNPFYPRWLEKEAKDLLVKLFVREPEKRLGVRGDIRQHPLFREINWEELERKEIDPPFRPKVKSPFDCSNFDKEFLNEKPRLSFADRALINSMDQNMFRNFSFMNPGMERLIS

PRKCQ, construct: Full length (from UniProt Q04759)
relative phosphorylation
Conditions	at +1	at +2	at +3	at +4	at -1	at -2	at -3	at -4	at -5
A fixed	0.568	0.491	0.841	0.988	1.06	0.884	0.837	1.17	1.13
D fixed	0.139	0.187	0.373	0.434	0.378	0.333	0.326	0.642	0.786
E fixed	0.184	0.14	0.362	0.385	0.315	0.305	0.344	0.725	0.58
F fixed	1.93	0.626	0.883	0.614	0.853	0.689	0.694	0.748	0.981
G fixed	0.411	0.376	0.887	1.1	1.6	1.22	0.871	1.41	1.21
H fixed	0.815	1.45	1.33	1.6	1.08	1.15	1.33	1.2	1.14
I fixed	1.46	0.612	0.762	0.629	0.309	0.348	0.329	0.522	0.769
K fixed	1.63	3.19	1.91	2.4	1.89	1.89	1.72	1.51	1.58
L fixed	1.16	0.553	0.969	0.652	0.64	0.472	0.462	0.553	0.857
M fixed	1.68	0.819	0.85	0.721	0.861	0.612	0.583	0.784	0.682
N fixed	0.441	0.873	0.782	1.01	1.21	1.11	0.915	1.05	0.899
P fixed	0.185	0.274	0.557	1.23	0.941	0.462	0.706	1.1	1.02
Q fixed	0.952	0.748	0.929	0.944	1.09	1.22	0.982	0.996	0.862
R fixed	1.83	3.66	2.14	1.88	2.29	4.01	4.83	1.95	1.88
V fixed	1.35	0.598	0.776	0.688	0.539	0.47	0.435	0.669	0.775
W fixed	1.07	0.859	1.31	0.884	0.728	1.01	0.814	1.22	1.12
Y fixed	1.21	1.54	1.33	0.827	1.2	0.822	0.816	0.757	0.734
pThr fixed	0.427	0.275	0.349	0.36	0.266	0.481	0.571	0.689	0.572
pTyr fixed	0.351	0.255	0.379	0.263	0.543	0.497	0.566	0.574	0.645

MAP3K9, construct: aa132-413 (from UniProt P80192)
relative phosphorylation
Conditions	at +1	at +2	at +3	at +4	at -1	at -2	at -3	at -4	at -5
A fixed	0.832	0.66	0.89	0.949	0.791	0.914	1.07	1.13	1.12
D fixed	0.308	0.362	0.612	0.652	1.02	1.23	1.16	1.57	1.45
E fixed	0.492	0.46	0.619	0.719	0.854	1.03	1.38	1.45	1.3
F fixed	1.61	0.594	1.44	0.823	1.19	1.33	1.14	0.824	0.978
G fixed	0.686	0.727	0.991	1.02	0.525	0.932	1.21	1.18	1.13
H fixed	1.23	1.66	1.28	0.995	1.3	1.13	1.1	0.955	0.984
I fixed	1.3	0.627	0.865	0.842	0.899	0.715	0.785	0.734	0.887
K fixed	1.19	2.81	1.59	1.94	1.07	0.523	0.688	0.998	0.882
L fixed	0.969	0.598	1.11	0.841	1.08	0.824	0.792	0.759	0.737
M fixed	1.28	0.522	0.995	0.952	1.25	0.931	0.863	0.929	0.827
N fixed	0.689	0.836	0.797	0.946	1.1	1.07	1.04	0.951	1.08
P fixed	0.208	0.36	0.501	1.04	0.775	1.57	1.15	0.99	0.9
Q fixed	1.2	0.907	0.741	0.943	0.924	1.08	0.925	0.934	0.901
R fixed	1.55	3.45	1.47	1.8	1.26	0.817	0.946	1.14	1.05
V fixed	1.49	0.602	0.796	0.767	0.873	0.701	0.798	0.83	0.908
W fixed	1.19	0.687	1.19	1.05	0.969	1.13	0.881	0.892	0.907
Y fixed	0.772	1.13	1.12	0.72	1.13	1.07	1.08	0.745	0.958
pThr fixed	0.825	0.703	0.677	1.01	0.976	1.23	1.83	1.55	1.57
pTyr fixed	0.628	0.376	0.709	0.622	1.29	1.19	1.54	1.02	1.54

ACVR2B, construct: aa161-end (from UniProt Q13705)
relative phosphorylation
Conditions	at +1	at +2	at +3	at +4	at -1	at -2	at -3	at -4	at -5
A fixed	0.595	1.11	0.975	1.11	0.803	0.672	0.922	0.979	0.962
D fixed	2.06	1.33	0.992	1.24	1.46	3.9	1.99	1.75	1.81
E fixed	3.92	1.1	1.26	1.18	1.31	5.09	2	1.49	1.53
F fixed	0.786	0.848	0.958	0.819	1.01	0.514	0.898	1.06	1.03
G fixed	0.531	1.27	1.09	0.987	0.57	0.472	0.941	1.07	0.878
H fixed	0.823	0.877	0.867	0.955	1.01	0.664	0.928	1.04	0.88
I fixed	0.875	0.985	1	0.924	0.746	0.396	0.77	0.78	0.752
K fixed	0.372	0.75	0.617	0.767	0.554	0.403	0.722	0.644	0.734
L fixed	0.752	0.69	1.17	0.901	1.38	0.532	0.725	0.88	0.8
M fixed	0.917	0.868	1.03	0.887	1.37	0.458	0.802	0.853	0.878
N fixed	0.742	0.933	0.887	0.905	0.948	0.876	0.987	0.971	1.01
P fixed	0.316	1.41	1.18	1.22	0.595	0.335	0.784	0.913	0.905
Q fixed	1.02	0.859	0.904	0.994	0.81	0.659	0.947	0.838	0.847
R fixed	0.374	0.826	0.769	0.827	0.531	0.45	0.621	0.626	0.802
V fixed	1.06	1.13	0.98	0.941	1.04	0.534	0.892	0.883	0.924
W fixed	0.969	0.954	1.13	1.33	1.56	0.512	1.11	1.2	1.23
Y fixed	0.886	1.07	1.19	0.998	1.31	0.527	0.963	1.03	1.03
pThr fixed	4.33	1.49	1.08	1.29	1.86	1.18	1.78	1.34	1.29
pTyr fixed	2.48	1.11	1.19	1.08	1.85	0.886	2.34	1.45	1.26

MKNK2, construct: Full length (from UniProt Q9HBH9)
relative phosphorylation
Conditions	at +1	at +2	at +3	at +4	at -1	at -2	at -3	at -4	at -5
A fixed	0.742	1	0.937	0.945	1.12	0.903	0.8	1.28	1.23
D fixed	0.22	0.453	0.406	0.728	0.37	0.24	0.239	0.284	0.221
E fixed	0.385	0.465	0.433	0.79	0.369	0.24	0.449	0.359	0.272
F fixed	1.36	0.807	0.936	0.895	0.555	0.439	0.453	0.721	0.949
G fixed	0.506	0.739	1.58	1.08	1.04	0.958	1.53	1.54	1.05
H fixed	1.06	1.71	1.32	1.22	1.24	0.874	1.07	1.02	0.898
I fixed	1.35	0.818	0.664	0.756	0.417	0.368	0.365	0.716	1.11
K fixed	1.02	0.875	1.89	1.62	3.14	2.06	3.1	1.75	1.4
L fixed	1.17	0.781	0.923	0.745	0.741	0.421	0.439	0.909	1.47
M fixed	1.73	0.915	0.942	0.849	0.887	0.427	0.617	0.898	0.976
N fixed	0.667	0.797	0.76	0.94	0.96	0.956	0.847	0.911	0.648
P fixed	0.24	0.44	0.931	1.21	0.284	0.571	1.48	1.58	1.49
Q fixed	1.59	0.904	1.1	1.13	1.2	0.835	0.957	0.884	0.767
R fixed	1.19	1.29	1.34	1.05	2.77	6.1	3.21	1.79	1.23
V fixed	1.19	0.981	0.703	0.861	0.566	0.5	0.401	0.749	1.47
W fixed	1.17	1.39	0.974	1.16	0.531	0.491	0.475	0.713	0.876
Y fixed	1.41	2.63	1.15	1.03	0.818	0.615	0.574	0.899	0.942
pThr fixed	0.649	0.492	0.516	0.736	0.203	0.304	0.47	0.562	0.572
pTyr fixed	0.783	0.714	0.604	0.782	0.285	0.356	0.568	0.647	0.642
